The values below come from FireProtDB (doi:10.1016/j.jmb.2010.09.022).

The labels stand for the following.
B1: Profilin, Q58NA1 (parent)
chain: MSDWDPVVKEWLVDTGYCCAGGIANAEDGVVFAAAADDDDGWSKLYKDDHEEDTIGEDGNACGKVSINEASTIKAAVDDGSAPNGVWIGGQKYKVVRPEKGFEYNDCTFDITMCARSKGGAHLIKTPNGSIVIALYDEEKEQDKGNSRTSALAFAEYLHQSGY

The series covers variants of B1. The note with it: Toxoplasma gondii; pH 7.5; Thermal; CD; HEPES 10mM; KCl 100mM; reversible: yes; structure 3NEC; whole UniProt chain shown.

Regarding MSDWDPVVKEWLVDTGYCCAGGIANAEDGVVFAAAADQGDGWSKLYKDDHEEDTIGEDGNACGKVSINEASTIKAAVDDGSAPNGVWIGGQKYKVVRPEKGFEYNDCTFDITMCARSKGGAHLIKTPNGSIVIALYDEEKEQDKGNSRTSALAFAEYLHQSGY [D38Q D39G], the melting temperature (Tm) was determined as 51.3 °C and the “change of melting temperature, mutant - wild type (higher = more stable)” value is -1.8 °C.
Regarding MSDWDPVVKEWLVDTGYCCAGGIANAEDGVVFAAAADDDDGWSKLYKDDHEEDTIGEDGNACGKVSINEASTIKAAVDDGSAPNGVWIGGQKYQFVNIEKGFEYNDCTFDIATCARSKGGAHLIKTPNGSIVIALYDEEKEQDKGNSRTSALAFAEYLHQSGY [K94Q V95F R97N P98I T112A M113T], the Tm came to 62.2 °C and the “change of melting temperature, mutant - wild type (higher = more stable)” value is 9.1 °C.
